Experimental findings from the DeepSol protein solubility set are described below.

The series can be described thus: soluble on expression in E. coli; label from the status in PepcDB or PDB records.
“MSDNAQLTGLCDRFRGFYPVVIDVETAGFNAKTDALLEIAAITLKMDEQGWLMPDTTLHFHVEPFVGANLQPEALAFNGIDPNDPDRGAVSEYEALHEIFKVVRKGIKASGCNRAIMVAHNANFDHSFMMAAAERASLKRNPFHPFATFDTAALAGLALGQTVLSKACQTAGMDFDSTQAHSALYDTERTAVLFCEIVNRWKRLGGWPLPAAEEV”: the “soluble on expression in E. coli” value was “not soluble”.

For the sequence “MGSDKIHHHHHHAQTTDPNQLKNEGNDALNAKNYAVAFEKYSEYLKLTNNQDSVTAYNCGVCADNIKKYKEAADYFDIAIKKNYNLANAYIGKSAAYRDMKNNQEYIATLTEGIKAVPGNATIEKLYAIYYLKEGQKFQQAGNIEKAEENYKHATDVTSKKWKTDALYSLGVLFYNNGADVLRKATPLASSNKEKYASEKAKADAAFKKAVDYLGEAVTLSPNRTEIKQMQDQVKAMIK”, the “soluble on expression in E. coli” value is listed as “not soluble”.

“KGFSSEDKGEWKLKLDASGNGQAVIRFLPAKTDDALPFAILVNHGFKKNGKWYIETCSSTHGDYDSCPVCQYISKNDLYNTNKTEYSQLKRKTSYWANILVVKDPQAPDNEGKVFKYRFGKKIWDKINAMIAVDTEMGETPVDVTCPWEGANFVLKVKQVSGFSNYDESKFLNQSAIPNIDDESFQKELFEQMVDLSEMTSKDKFKSFEELNTKFNQVLGTAALGGAAAAAAS”: the “soluble on expression in E. coli” value was “soluble”.

Turning to “KKAQLIVAGIGPGSPEDITPAVIQAVKNSDVVIGYKYYFQFIEPYLEPGTECIDTGMKREKARAEQAFELAEQGKTVCVISSGDAGIYGMAPLVYEMKRERGSRVEIEVLPGIS”, the “soluble on expression in E. coli” value is on record as “not soluble”.

Turning to “MDFGALPPEINSTRMYAGAGAAPLMAAGATWNGLAVELSTTASSVESVIMQLTTEQWLGPASMSMVVAAQPYLAWLTYTAESAAHAAAQAMASAAAFEAAFAMTVPPAEVAANRALLAALVATNVLGQNTPAIMATEAHYGEMWAQDALAMYGYAASSAAAGRLNPLITPSQTANMAGLAGQAAAVSHAAAASTVQQVGLGSLISNLPNAVMGFASPLTSAADAAGLGGIIQDIEELLGITFVQNAINGAVNTTAWFVMATIPNAVFLGHAFAALNPATVTAAADAVPAAAAAAGLAHTVTPVGVGGASLTASLGEASSVGGLSVPAGWSTAAPAMTSGTTALEGSGWAVPEEAGPVAAMPGMAGISGAAKGAGAYAGPRYGFKPIVMPKQVVV”, the “soluble on expression in E. coli” value is “not soluble”.

For the sequence “MSLSEVSLRPAKISTVLPGSLGEEMGFEPGDAIVRINGQAPRDLIDYQFLCADDYLELDVLDSQGELHELAVEKEFDQDLGLGFETALFDGLIQCNNRCPFCFIDQQPPGKRESLYYKDDDYRLSFLYGSYLTLTNLSAKEWQRIEQLRLSPLYVSIHATEASVRERLLKNHRAGQILDQLAWFQARRLQIHAQVVVCPGVNDGKHLEQTLRDLAQFHQGETPAVISVAVVPVGLTRFRPQEDELSPVGQAKATEVIAQVQALQKEFAQQLGGNFVWLADEWFLIARQPLPPESHYEDYPQIGNGVGSIRQFIKEFQQQAAEFLPPAIAEAKTLTWVVGNAVEQAFELLVEQLNQVKGLTVNLAPLNSDYWGQEITVTGLLTGQDLIAKLAGRDLGDGILLPALMLKHDDTRFLDDLRVADVAQKLGTTIYPVADVASLLEHCVQPMAVSREGHHHHHH”, the “soluble on expression in E. coli” value was “soluble”.

Turning to “MVDVIALGEPLIQFNSFNPGPLRFVNYFEKHVAGSELNFCIAVVRNHLSCSLIARVGNDEFGKNIIEYSRAQGIDTSHIKVDNESFTGIYFIQRGYPIPMKSELVYYRKGSAGSRLSPEDINENYVRNSRLVHSTGITLAISDNAKEAVIKAFELAKSRSLDTNIRPKLWSSLEKAKETILSILKKYDIEVLITDPDDTKILLDVTDPDEAYRKYKELGVKVLLYKLGSKGAIAYKDNVKAFKDAYKVPVEDPTGAGDAMAGTFVSLYLQGKDIEYSLAHGIAASTLVITVRGDNELTPTLEDAERFLNEFKT”, the “soluble on expression in E. coli” value is “soluble”.

Take “NNEIMPGKMKVKATKGEGDGGITSEGNALYNNEGGRAFMYAYVTTKPGMKYVKWEHDSGVVTVELEPPCRFVIDTPTGPQIKYLYFVKNLNNLRRGAVLGYIGATVRLQ”: the “soluble on expression in E. coli” value was “soluble”.

For the sequence “MSLHPHLNANLEGGVLTLAINRPEAKNALYGELYLWIAKALDEADQNKDVRVVVLRGAEHDFTAGNDMKDFMGFVQNPNAGPAGQVPPFVLLKSAARLSKPLIIAVKGVAIGIGVTILLQADLVFADNTALFQIPFVSLGLSPEGGASQLLVKQAGYHKAAELLFTAKKFNAETALQAGLVNEIVEDAYATAQATAQHLTALPLASLKQTKALMKHDLDQIIECIDHEAEIFMQRVQSPEMLEAVQAFMQKRQPDFSQEGHHHHHH”, the “soluble on expression in E. coli” value is “soluble”.

Regarding “MAAQQPLSQEQLLHFWGAHNTMGKMTRRTSQSDGGKPSGNSNAAGGAGTKPKVATPQVVAKIEQYKRDNPTIFAWEIREKLISEDVCTTPPSVSSINRILRTRAAERAAEELQMILSAQHLARPRAQQVRLPPAFPFPFPLVWPGLLPNPAQLSLLLNSGALAPPVQSGGAGGPGVFGNSGQISVDSNLNLSEDDSTLGANARRLSRSTFTNEQLQSLEEVFLRDPYPSPNERADLVKRTNLPEARIQVWFSNRRAKWRKTNANGSDRDELRAERSETDDALSISSQSPSPGGGQETGSDEGKKKTITLFKPYE”, the “soluble on expression in E. coli” value was “not soluble”.

For “VTPELDEREQEVIVRSAINQFEGFIKLNKKIPPEVLTSLNGIDEAARLADTIAAHMPLKLVDKQQVLEIIDVTERLEFLMGQMESEIDLLQVEKRIRGRVKKQMEKSQREYYLNEQMKAIQKELGEMEDAPDEFETLQKKIDESKMPQEAREKTEQELQKLKMMSPMSAEATVVRSYIDWMVSVPWTKRSKVKKNLAKAEEILNEDHYGLERVKERILEYLAVQNRINKLKGPILCLVGPPGVGKTSLGRSIASATGRKYVRMALGGVRDEAEIRGHRRTYIGSLPGKLIQKMSKVGVKNPLFLLDEIDKMSSDMRGDPASALLEVLDPEQNNSFNDHYLEVDYDLSDVMFVATSNSMNIPGPLLDRMEVIRL”, the “soluble on expression in E. coli” value was “not soluble”.

With “MAKKTSSKGKLPPGPTPFPIIGNILQIDAKDISKSLTKFSECYGPVFTVYLGMKPTVVLHGYEAVKEALVDLGEEFAGRGSVPILEKVSKGLGIAFSNAKTWKEMRRFSLMTLRNFGMGKRSIEDRIQEEARCLVEELRKTNASPCDPTFILGCAPCNVICSVIFHNRFDYKDEEFLKLMESLHENVELLGTPWLQVYNNFPALLDYFPGIHKTLLKNADYIKNFIMEKVKEHQKLLDVNNPRDFIDCFLIKMEQENNLEFTLESLVIAVSDLFGAGTETTSTTLRYSLLLLLKHPEVAARVQEEIERVIGRHRSPCMQDRSRMPYTDAVIHEIQRFIDLLPTNLPHAVTRDVRFRNYFIPKGTDIITSLTSVLHDEKAFPNPKVFDPGHFLDESGNFKKSDYFMPFSAGKRMCVGEGLARMELFLFLTSILQNFKLQSLVEPKDLDITAVVNGFVSVPPSYQLCFIPIHHHH”, the “soluble on expression in E. coli” value is “soluble”.

With “DIVLTQSPATLSVTPGNSVSLSCRASQSIGNNLHWYQQKSHESPRLLIKYASQSISGIPSRFSGSGSGTDFTLSINSVETEDFGMYFCQQSNSWPYTFGGGTKLEITGGGGSGGGGSGGGGSDIQLQESGPSLVKPSQTLSLTCSVTGDSITSDYWSWIRKFPGNRLEYMGYVSYSGSTYYNPSLKSRISITRDTSKNQYYLDLNSVTTEDTATYYCANWDGDYWGQGTLVTVSAAHHHHHH”, the “soluble on expression in E. coli” value is “soluble”.

On to “MGSDKIHHHHHHMRIVVSGGGTGGHIYPALAMIREIERRTPCEVLYIGTENGLEADIVRRAGIPFESIEISGIRRSLSFENVKTGFRFLKSVVRVRKLLRDFQPDIVVGTGGFVCGPVLYTAAKMGYKTLVHEQNSLPGITNKFLARYVDRVALSFKGSGHHFGKNKGKTILIGNPRASEVAMLQIDPVEEKRKYGFEQDRPLIVVYGGSRGAPAINKAVVDMIPKLTETDWSLLFVTGQVHYEDIQAQLGTLPDRIQLRPFIYDLPLILKASQLVISRSGASTLAELTTLGLPSILIPSPYVTENHQEVNASSLVETGASLLIRESELTGDRLFDACTKAIADQADMSKASLALGMPNAASDLVDELLRLIQRKN”, for which the “soluble on expression in E. coli” value is “not soluble”.

For “KMKLYNFWRSGTSHRLRIALNLKGVPYEYLAVHLGKEEHLKDAFKALNPQQLVPALDTGAQVLIQSPAIIEWLEEQYPTPALLPADADGRQRVRALAAIVGCDIHPINNRRILEYLRKTFGADEAAINAWCGTWISAGFDAYEALLAVDPKRGRYSFGDTPTLADCYLVPQVESARRFQVDLTPYPLIRAVDAACGELDAFRRAAPAAQPDSA”, the “soluble on expression in E. coli” value is given as “soluble”.

Take “MDAFSGIAGPLGRASELHRYEGNQTVVFCAGGVGLPPVYPIMREHLRLGNHVTLISGFRAKEFLFWTGDDERVGKLKKEFGDQLSLIYTTNDGSYGVKGFVTGPLEEMMKANQEGKGRSIAEVIAIGPPLMMRAVSDLTKPYGVKTVASLNSLEHHHHHH”: the “soluble on expression in E. coli” value is listed as “soluble”.

For the sequence “METLGVQTNSELREELNRLKEENARLKKELNQHQVIVNNTLDAIFICDNEMRIVQANEATERMLQVDSEDLKKRSVLDFLFSIPKDELNLSVKKFFKKGFLWKEVPIRLDCGATKYIEFLAKRGIGEDFFFVVMRDIS”, the “soluble on expression in E. coli” value is on record as “not soluble”.

In the case of “MAHHHHHHMGIYSDTDDDSPIGIEVVGEASSDSEEPNPHSTTKRKVSGAVDHNNGYNQKKNKRRRLKNKWEENPQLHETPDEEQISNVKKRVYVLDTCSIVEHIEWSILEEVAKYYLIIIPKKVMDELGKMEGGRGSTCNRVLNKLENEHTSNKMNVGFRLQRKNDKDKNVLSAARVNDDHILSCACSFRNEHDVVLVTSDNILKLKAYAEGIPTVSTLKDVTRLTNGLRGGKFE”, the “soluble on expression in E. coli” value is on record as “not soluble”.

In the case of “MSTHLQGSLFDQTDELGLGPLDGLRRTVLGAGAWIDLLPGWLSGADALFERLAADVPWRAERRKMYDQTVDVPRLLAYYRAGDTLPHPVLAEARDALSAHYVAELGEPFTTAGLCYYRDGRDSVAWHGDRIGRGAREDTMVAILSVGAPRDLALRPRGGGDVLRRPLGHGDLIVMGGSCQRTWEHAIPKSTRAAGPRISIQFRPSGVNLEHHHHHH”, the “soluble on expression in E. coli” value is on record as “soluble”.

Consider “MGLMKKFRDYFLEEDYEDYDEEYEAPQPEEEAPPKTAGKANVVSLQSVQKSAKVVLAEPRVYAEAQEIADHLKSRRAVIVNLQRIQHEQAKRIVDFLSGTVYAIGGDIQQVGTKIFLCTPENVDVSGSISLDGEDDRPMKRW”, for which the “soluble on expression in E. coli” value is “not soluble”.

On to “PIKVDGANINITAAIYDEIQQEMKRAKVSQALFAKVAANKSQGWLCELLRWKENPSPENRTLWENLCTIRRFLNLPQHERDVIYEEES”, for which the “soluble on expression in E. coli” value is reported as “soluble”.

Take “MEMSLEEFKTMFKTVMKKEFEDELHRITEPGKSKMAIERYIQGINLLDKKCILDNDENHNVLFKFAPIDQDFAHSSTNLSTPSPLEEESARENNHEAQELDITERIARMNLIGGSEFQMQYSSFLTAVSTKPSTDASLKKEARRLAEIWWAKNLRFFPQTMYVLQKLDQKNPDGFNYTDFEEEVQKVIPRSWIQNHHSFTLLSLLNEESLYVKFNLIMPSDSENMNRVKVNQVIKFLGFHEIGDCEFSMIYQYVSSKSASESTYSIHKFMCEDFPGWETQYNNEKKSMDRIFEIIIQEQKLFWTEYDYHTYKRHAYKIAVPMVFSLNIVDKAVGVRSDAR”: the “soluble on expression in E. coli” value is recorded as “not soluble”.

“MAPSMIPFTIKLKTCLKMCIQRLRYAQEKQQAIAKQSRRQVAQLLLTNKEQKAHYRVETLIHDDIHIELLEILELYCELLLARVQVINDISTEEQLVKEHMDDGINEAIRSLIYAILFVDEVKELSQLKDLMAWKINVEFVNGVIADHIDVPEKIIKKCSPSVPKEELVDLYLKEIAKTYDVPYSKLENSLSS”: the “soluble on expression in E. coli” value is reported as “soluble”.
